# In paper PMC6114939:
# Columns and labels:
# p85α [1] = target: p85α (UniProt P27986); experiment: co-immunoprecipitation, immunoblot; details: sites Y64
# p85α [2] = target: p85α (UniProt P27986); experiment: His beads pull-down after kinase assay; details: reference: WT His-PFKP with GST-EGFR; sites Y64
substance,measurement,setting,value
PFKP (platelet isoform of phosphofructokinase 1) (from UniProt Q01813) Flag-rPFKP Y64F,binding against the reference,p85α [1]; reference: WT Flag-rPFKP,lost
PFKP (platelet isoform of phosphofructokinase 1) (from UniProt Q01813) Y64F,binding against the reference,p85α [1]; reference: wild-type tagged PFKP (presumed),lost
PFKP (platelet isoform of phosphofructokinase 1) (from UniProt Q01813) His-PFKP Y64F with GST-EGFR,binding against the reference,p85α [2],lost
